Patent US20040006214A1

Target: hepatitis C virus in patient serum
Test: immobilized adsorbent shaken with HCV patient serum 37 C 2 h; HCV RNA in supernatant against saline control

peptide having the amino acid sequence of 57 residues in the C3 domain of protein G with cysteine ad
Adsorption rate (%): 28%

protein G (Pharmacia LKB) (from UniProt P19909 303-497)
Adsorption rate (%): 82%
